Results taken from patent US20100330078A1 (Pfizer, published 2010).

How the values were obtained:
Human FcγRIIa/131R [1] = target: T1, Human FcγRIIa/131R (human, UniProt P12318 36-218, limits assumed); experiment: Biacore
T1 construct: Polymorphic variant 131R; construct not described
T1 sequence (looked up): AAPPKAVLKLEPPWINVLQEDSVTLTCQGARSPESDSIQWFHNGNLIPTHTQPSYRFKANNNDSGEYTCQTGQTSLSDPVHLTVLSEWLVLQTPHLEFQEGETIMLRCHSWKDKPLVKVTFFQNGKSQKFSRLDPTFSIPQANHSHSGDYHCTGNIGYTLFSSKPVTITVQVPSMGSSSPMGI
Description: (§1) The ability of 22B5/DLE, which contains the IgG1 DLE triple mutations (as discussed previously in Example 2), to enhance binding to the FcγRs was evaluated in a Biacore binding experiment. The FcγR binding affinities of 22B5/DLE were compared with the binding affinity of wild type (wt) IgG1. […] The binding affinity comparison of 22B5/DLE and wild type IgG1 was also evaluated against the murine Fcγ receptors. The greatest enhancement in binding was to the mFcγRIV, followed by mFcγRI, and mFcγRIII (see FIG. 5).

Human FcγRIIIa/158F [2] = target: T2, Human FcγRIIIa/158F (human, UniProt P08637 17-208, limits assumed); experiment: Biacore
T2 construct: also called Human FcγRIII/158F
Description: as §1

Murine FcγRI [3] = target: T3, Murine FcγRI (murine, UniProt P26151 25-297, limits assumed); experiment: Biacore
T3 construct: Construct not described; also called mFcγRI
T3 sequence (looked up): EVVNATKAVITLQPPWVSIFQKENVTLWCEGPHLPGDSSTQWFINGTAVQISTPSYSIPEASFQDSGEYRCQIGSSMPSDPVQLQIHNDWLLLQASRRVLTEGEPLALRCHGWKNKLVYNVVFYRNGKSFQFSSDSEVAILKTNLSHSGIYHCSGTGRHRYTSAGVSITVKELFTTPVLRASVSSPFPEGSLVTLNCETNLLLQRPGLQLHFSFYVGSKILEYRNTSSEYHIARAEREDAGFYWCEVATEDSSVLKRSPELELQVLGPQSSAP
Description: as §1

Murine FcγRIII [4] = target: T4, Murine FcγRIII (murine, UniProt P08508 31-215, limits assumed); experiment: Biacore
T4 construct: Construct not described; also called mFcγRIII
T4 sequence (looked up): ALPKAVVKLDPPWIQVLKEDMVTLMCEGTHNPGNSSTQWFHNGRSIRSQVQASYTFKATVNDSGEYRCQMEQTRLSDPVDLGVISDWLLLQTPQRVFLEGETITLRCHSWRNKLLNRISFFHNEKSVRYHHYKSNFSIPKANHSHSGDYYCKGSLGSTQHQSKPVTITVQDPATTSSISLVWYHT
Description: as §1

Human FcγRI [5] = target: T5, Human FcγRI (human, UniProt P12314 16-288, limits assumed); experiment: Biacore
T5 construct: Construct used in Biacore is not described
Description: as §1

Human FcγRIIIa/158V [6] = target: T6, Human FcγRIIIa/158V (human, UniProt P08637 17-208, limits assumed); experiment: Biacore
T6 construct: also called Human FcγRIII/158V
Description: as §1

Human FcγRIIa/131H [7] = target: T7, Human FcγRIIa/131H (human, UniProt P12318 36-218, limits assumed); experiment: Biacore
T7 construct: Polymorphic variant 131H; construct not described
T7 sequence (looked up): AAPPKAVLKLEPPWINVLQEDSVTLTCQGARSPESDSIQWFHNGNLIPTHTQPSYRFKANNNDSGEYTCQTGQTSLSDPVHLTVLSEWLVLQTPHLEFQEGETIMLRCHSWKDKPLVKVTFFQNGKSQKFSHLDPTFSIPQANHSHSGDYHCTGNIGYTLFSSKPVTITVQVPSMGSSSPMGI
Description: as §1

Murine FcγRIV [8] = target: T8, Murine FcγRIV (murine, UniProt A0A0B4J1G0 21-203); experiment: Biacore
T8 construct: Construct not described; also called mFcγRIV
T8 sequence: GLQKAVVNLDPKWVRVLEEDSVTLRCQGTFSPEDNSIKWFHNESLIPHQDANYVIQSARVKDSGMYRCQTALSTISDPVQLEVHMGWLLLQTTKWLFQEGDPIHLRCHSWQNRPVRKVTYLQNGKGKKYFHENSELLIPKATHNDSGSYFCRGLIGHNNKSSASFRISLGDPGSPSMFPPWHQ
Description: as §1

[9] = target: T9, human integrin α5β1 on cells (endogenous, HUVEC; tumor or endothelial-expressed) (human, UniProt P08648 42-1049; P05556 21-798); experiment: FACS on HUVEC (endogenous human α5β1), GeoMean against mAb concentration, fitted; experiment 030207
T9 construct: whole, on cells; also called cell surface integrin α5; endogenous α5β1

Human FcγRIIa/131R [10] = target: T1, Human FcγRIIa/131R; experiment: Biacore, KD against 22B5 wild type IgG1
Description: as §1

Human FcγRIIIa/158F [11] = target: T2, Human FcγRIIIa/158F; experiment: Biacore, KD against 22B5 wild type IgG1
Description: as §1

Murine FcγRI [12] = target: T3, Murine FcγRI; experiment: Biacore, KD against 22B5 wild type IgG1
Description: as §1

Murine FcγRIII [13] = target: T4, Murine FcγRIII; experiment: Biacore, KD against 22B5 wild type IgG1
Description: as §1

Human FcγRI [14] = target: T5, Human FcγRI; experiment: Biacore, KD against 22B5 wild type IgG1
Description: as §1

Human FcγRIIIa/158V [15] = target: T6, Human FcγRIIIa/158V; experiment: Biacore, KD against 22B5 wild type IgG1
Description: as §1

Human FcγRIIa/131H [16] = target: T7, Human FcγRIIa/131H; experiment: Biacore, KD against 22B5 wild type IgG1
Description: as §1

Murine FcγRIV [17] = target: T8, Murine FcγRIV; experiment: Biacore, KD against 22B5 wild type IgG1
Description: as §1

T6 sequence (P08637 17-208 F176V limits assumed): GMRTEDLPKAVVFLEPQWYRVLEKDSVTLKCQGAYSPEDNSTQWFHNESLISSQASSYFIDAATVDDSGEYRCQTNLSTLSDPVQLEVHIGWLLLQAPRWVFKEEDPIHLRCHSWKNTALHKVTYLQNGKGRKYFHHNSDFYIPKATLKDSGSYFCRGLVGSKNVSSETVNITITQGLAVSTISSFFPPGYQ
T5 sequence (P12314 16-288 limits assumed): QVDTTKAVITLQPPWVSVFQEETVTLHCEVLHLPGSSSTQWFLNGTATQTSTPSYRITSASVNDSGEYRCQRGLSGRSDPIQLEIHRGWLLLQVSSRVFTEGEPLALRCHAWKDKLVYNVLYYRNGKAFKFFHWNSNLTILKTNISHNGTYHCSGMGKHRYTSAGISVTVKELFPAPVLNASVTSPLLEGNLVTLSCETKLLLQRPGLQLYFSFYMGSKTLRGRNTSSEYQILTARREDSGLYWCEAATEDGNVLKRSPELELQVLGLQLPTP
T2 sequence (P08637 17-208 limits assumed): as the sequence (P08637 17-208 F176V limits assumed) above, with V160F counted along it
T9 sequence (P08648 42-1049, chain 1 of 2): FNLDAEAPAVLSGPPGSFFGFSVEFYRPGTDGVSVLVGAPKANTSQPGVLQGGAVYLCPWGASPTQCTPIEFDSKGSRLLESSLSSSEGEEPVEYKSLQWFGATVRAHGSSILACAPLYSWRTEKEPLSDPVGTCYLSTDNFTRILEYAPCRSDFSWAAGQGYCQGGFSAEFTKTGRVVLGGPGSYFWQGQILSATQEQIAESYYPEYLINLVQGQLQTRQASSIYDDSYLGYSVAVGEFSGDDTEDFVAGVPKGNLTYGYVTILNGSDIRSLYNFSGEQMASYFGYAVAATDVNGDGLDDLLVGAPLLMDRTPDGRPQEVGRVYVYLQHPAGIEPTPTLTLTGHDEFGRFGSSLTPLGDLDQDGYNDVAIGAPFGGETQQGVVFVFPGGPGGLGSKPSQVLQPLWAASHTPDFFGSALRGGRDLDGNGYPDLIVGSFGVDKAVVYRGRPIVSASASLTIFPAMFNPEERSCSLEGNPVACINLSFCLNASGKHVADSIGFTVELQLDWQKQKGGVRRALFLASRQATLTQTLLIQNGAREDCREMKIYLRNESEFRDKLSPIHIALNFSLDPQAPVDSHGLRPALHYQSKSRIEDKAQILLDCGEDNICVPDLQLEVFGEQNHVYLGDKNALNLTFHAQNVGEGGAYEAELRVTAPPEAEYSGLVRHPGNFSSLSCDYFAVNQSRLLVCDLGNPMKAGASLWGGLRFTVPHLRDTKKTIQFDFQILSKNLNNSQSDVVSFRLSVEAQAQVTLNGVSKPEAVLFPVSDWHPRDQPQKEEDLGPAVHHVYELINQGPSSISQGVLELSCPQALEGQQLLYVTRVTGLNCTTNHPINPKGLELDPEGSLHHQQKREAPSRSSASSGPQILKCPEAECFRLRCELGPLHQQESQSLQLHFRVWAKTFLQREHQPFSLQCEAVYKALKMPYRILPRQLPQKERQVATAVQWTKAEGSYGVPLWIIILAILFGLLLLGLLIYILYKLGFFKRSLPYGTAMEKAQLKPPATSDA
T9 sequence (P05556 21-798, chain 2 of 2): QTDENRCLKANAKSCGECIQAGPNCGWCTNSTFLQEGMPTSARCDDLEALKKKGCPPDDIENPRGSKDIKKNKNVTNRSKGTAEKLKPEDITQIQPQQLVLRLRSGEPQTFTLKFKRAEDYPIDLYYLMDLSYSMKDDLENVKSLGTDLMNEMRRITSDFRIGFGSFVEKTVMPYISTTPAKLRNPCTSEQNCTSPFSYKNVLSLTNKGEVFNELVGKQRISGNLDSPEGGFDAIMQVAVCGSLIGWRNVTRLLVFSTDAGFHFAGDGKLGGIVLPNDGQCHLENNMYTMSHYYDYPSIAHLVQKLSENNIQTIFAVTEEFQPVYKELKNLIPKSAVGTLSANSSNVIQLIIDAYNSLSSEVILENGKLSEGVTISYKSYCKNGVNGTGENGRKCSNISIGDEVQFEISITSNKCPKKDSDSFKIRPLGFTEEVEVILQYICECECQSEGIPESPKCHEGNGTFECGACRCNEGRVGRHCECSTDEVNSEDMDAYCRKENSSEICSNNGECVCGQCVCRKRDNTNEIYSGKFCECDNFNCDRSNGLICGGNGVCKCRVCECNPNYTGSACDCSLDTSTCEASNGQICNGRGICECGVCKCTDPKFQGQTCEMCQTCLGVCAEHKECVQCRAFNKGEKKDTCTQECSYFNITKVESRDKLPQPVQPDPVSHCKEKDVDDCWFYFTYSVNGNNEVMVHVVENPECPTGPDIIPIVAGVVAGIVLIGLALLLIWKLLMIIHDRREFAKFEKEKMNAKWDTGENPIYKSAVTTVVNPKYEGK

Kd (Human FcγRIIa/131R [1]): 650 nM
Kd (Human FcγRIIIa/158F [2]): 27 nM
Kd (Murine FcγRI [3]): 96 nM
Kd (Murine FcγRIII [4]): 1700 nM
Kd (Human FcγRI [5]): 5.8 nM
Kd (Human FcγRIIIa/158V [6]): 9.4 nM
Kd (Human FcγRIIa/131H [7]): 1000 nM
Kd (Murine FcγRIV [8]): 9.1 nM
Kd [9]: 2.42 nM
Fold enhancement over wt IgG1 (Human FcγRIIa/131R [10]): 2.3 fold
Fold enhancement over wt IgG1 (Human FcγRIIIa/158F [11]): 122 fold
Fold enhancement over wt IgG1 (Murine FcγRI [12]): 14 fold
Fold enhancement over wt IgG1 (Murine FcγRIII [13]): 5 fold
Fold enhancement over wt IgG1 (Human FcγRI [14]): 6 fold
Fold enhancement over wt IgG1 (Human FcγRIIIa/158V [15]): 70 fold
Fold enhancement over wt IgG1 (Human FcγRIIa/131H [16]): 1.6 fold
Fold enhancement over wt IgG1 (Murine FcγRIV [17]): 260 fold
B1: 22B5/DLE (antibody, human IgG1, kappa)
heavy: QLQLQESGPGLVKPSETLSLTCTVSGGSISSSSYWGWIRQPPGKGLEWIGSIYYSGRNYNNPSLKSRVTISVDTSKNQFSLKLSSVTAADTAVYYCARHYYGSGSSYYYYDLDVWGQGTTVTVSSASTKGPSVFPLAPSSKSTSGGTAALGCLVKDYFPEPVTVSWNSGALTSGVHTFPAVLQSSGLYSLSSVVTVPSSSLGTQTYICNVNHKPSNTKVDKKVEPKSCDKTHTCPPCPAPELLGGPDVFLFPPKPKDTLMISRTPEVTCVVVDVSHEDPEVKFNWYVDGVEVHNAKTKPREEQYNSTYRVVSVLTVLHQDWLNGKEYKCKVSNKALPLPEEKTISKAKGQPREPQVYTLPPSREEMTKNQVSLTCLVKGFYPSDIAVEWESNGQPENNYKTTPPVLDSDGSFFLYSKLTVDKSRWQQGNVFSCSVMHEALHNHYTQKSLSLSPGK
light: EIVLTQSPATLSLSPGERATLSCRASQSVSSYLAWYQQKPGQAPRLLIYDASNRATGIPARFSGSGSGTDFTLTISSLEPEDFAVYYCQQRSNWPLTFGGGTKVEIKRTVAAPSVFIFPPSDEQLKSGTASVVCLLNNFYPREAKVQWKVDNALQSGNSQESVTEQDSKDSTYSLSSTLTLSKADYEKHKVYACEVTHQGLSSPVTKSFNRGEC
notes: Human IgG1 with Fc mutations S247D, A338L, I340E; the VH already holds the germline back-mutations I30S and N33S; also called 22B5 IgG1 DLE; 22B5 G1 DLE
